Results taken from PMC10698503, “Phosphatase specificity principles uncovered by MRBLE:Dephos and global substrate identification” (Molecular Systems Biology, 2023).

B1: EBP2_HUMAN (protein, UniProt Q99848 1-306, looked up)
Probable rRNA-processing …: MDTPPLSDSESESDESLVTDRELQDAFSRGLLKPGLNVVLEGPKKAVNDVNGLKQCLAEFKRDLEWVERLDVTLGPVPEIGGSEAPAPQNKDQKAVDPEDDFQREMSFYRQAQAAVLAVLPRLHQLKVPTKRPTDYFAEMAKSDLQMQKIRQKLQTKQAAMERSEKAKQLRALRKYGKKVQTEVLQKRQQEKAHMMNAIKKYQKGFSDKLDFLEGDQKPLAQRKKAGAKGQQMRKGPSAKRRYKNQKFGFGGKKKGSKWNTRESYDDVSSFRAKTAHGRGLKRPGKKGSNKRPGKRTREKMKNRTH
B2: SF01_HUMAN (protein, UniProt Q15637 2-639, looked up)
Splicing factor 1: ATGANATPLDFPSKKRKRSRWNQDTMEQKTVIPGMPTVIPPGLTREQERAYIVQLQIEDLTRKLRTGDLGIPPNPEDRSPSPEPIYNSEGKRLNTREFRTRKKLEEERHNLITEMVALNPDFKPPADYKPPATRVSDKVMIPQDEYPEINFVGLLIGPRGNTLKNIEKECNAKIMIRGKGSVKEGKVGRKDGQMLPGEDEPLHALVTANTMENVKKAVEQIRNILKQGIETPEDQNDLRKMQLRELARLNGTLREDDNRILRPWQSSETRSITNTTVCTKCGGAGHIASDCKFQRPGDPQSAQDKARMDKEYLSLMAELGEAPVPASVGSTSGPATTPLASAPRPAAPANNPPPPSLMSTTQSRPPWMNSGPSESRPYHGMHGGGPGGPGGGPHSFPHPLPSLTGGHGGHPMQHNPNGPPPPWMQPPPPPMNQGPHPPGHHGPPPMDQYLGSTPVGSGVYRLHQGKGMMPPPPMGMMPPPPPPPSGQPPPPPSGPLPPWQQQQQQPPPPPPPSSSMASSTPLPWQQNTTTTTTSAGTGSIPPWQQQQAAAAASPGAPQMQGNPTMVPLPPGVQPPLPPGAPPPPPPPPPGSAGMMYAPPPPPPPPMDPSNFVTMMGMGVAGMPPFGMPPAPPPPPPQN
B3: GAR1_HUMAN (protein, UniProt Q9NY12 1-217, looked up)
H/ACA ribonucleoprotein …: MSFRGGGRGGFNRGGGGGGFNRGGSSNHFRGGGGGGGGGNFRGGGRGGFGRGGGRGGFNKGQDQGPPERVVLLGEFLHPCEDDIVCKCTTDENKVPYFNAPVYLENKEQIGKVDEIFGQLRDFYFSVKLSENMKASSFKKLQKFYIDPYKLLPLQRFLPRPPGEKGPPRGGGRGGRGGGRGGGGRGGGRGGGFRGGRGGGGGGFRGGRGGGFRGRGH

Assays:
Venus-B55 = assay: Affinity purification (pulldown) of YFP/Venus-B55 from mitotic cells, label-free LC-MS/MS; type: binding, human; settings: for log2 ratio [Venus-B55/Venus]: enrichment in Venus-B55 pulldown over Venus control, from 3 replicates each; for log2 IBAQ [Venus-B55 1] / log2 IBAQ [Venus-B55 2] / log2 IBAQ [Venus-B55 3]: pulldown of Venus-B55 from mitotic cells, label-free LC-MS/MS, log2 IBAQ of co-purified protein; for log2 IBAQ [Venus-B55 1]: replicate 1; for log2 IBAQ [Venus-B55 2]: replicate 2; for log2 IBAQ [Venus-B55 3]: replicate 3
Source text: (§1) We defined interactomes of PP1γ and B55α during mitosis using affinity purification of YFP‐tagged subunits and also proximity‐dependent ligation using miniTurbo to capture interactions at mitotic exit (Appendix Fig S8) (Branon et al, [2018]; Sears et al, [2019]). […] These identified proteins can constitute both regulators and substrates. […] To understand how these protein interactions might shape dephosphorylation, we first aimed at generating interactome networks and overlay regulated sites. We integrated interactomes and information from the STRING database (Szklarczyk et al, [2023]) with our regulated phosphorylation sites to generate a network of complexes and dephosphorylation sites (Fig 4C and Appendix Fig S9A). For PP1, we also integrated information on known and predicted RVxF motifs (Smith et al, [2019]). […] As an example, CASC5 (KNL1) could scaffold PP1 dephosphorylation of CENPC S261, a phosphorylation site in a nuclear localization sequence. In agreement with previous work, PP2A‐B55 regulated dephosphorylation of several nucleoporins at mitotic exit consistent with Nup153 and TPR being present in the interactomes (Cundell et al, [2016]).
(§2) PP1 and B55 cDNAs were cloned into modified versions of pcDNA5/FRT/TO (Invitrogen) to make N‐terminal fusions to YFP, BioID, or TurboID. Stable cell lines were generated into HeLa/FRT/TRex cells (kind gift from S. Taylor), and for YFP affinity, purification cells were synchronized with thymidine and released into nocodazole‐containing media to arrest them in mitosis. Cells were resuspended in lysis buffer (50 mM NaCl, 50 mM Tris 7,4, 1 mM EDTA, 0.1% NP40, 1 mM DTT, and protease inhibitor cocktail), and following sonication, the lysate was clarified by centrifugation. Cell lysate was incubated with GFP‐Trap beads (Chromotek) for 1 h, washed 3 × 1 ml with lysis buffer, and resuspended in SDS–PAGE loading buffer.
(§3) The Q‐Exactive Plus was set to perform an Orbitrap MS1 scan (R = 70 K; AGC target = 1e6) from 350 to 1,500 m/z, followed by HCD MS2 spectra on the 10 most abundant precursor ions detected by Orbitrap scanning (R = 17.5 K; AGC target = 1e5; max ion time = 50 ms) before repeating the cycle. Precursor ions were isolated for HCD by quadrupole isolation at width = 1 m/z and HCD fragmentation at 26 normalized collision energy (NCE). Charge state 2, 3, and 4 ions were selected for MS2. Precursor ions were added to a dynamic exclusion list ± 20 ppm for 15 s. […] Static modifications included carbamidomethylcysteine and variable modifications included oxidized methionine. […] Missing values were imputed from a normal distribution in Perseus to enable statistical analysis and visualization by volcano plot (Tyanova et al, [2016]). Statistical analysis was carried out in Perseus by two‐tailed Student's t‐test.

Venus-PP1 = assay: Affinity purification (pulldown) of YFP/Venus-PP1 from mitotic cells, label-free LC-MS/MS; type: binding, human; settings: for B55 or PP1?: assignment of the co-purified protein as interactor of Venus-B55 and/or Venus-PP1 (both pulldowns); for log2 ratio [Venus-PP1/Venus]: enrichment in Venus-PP1 pulldown over Venus control, from 3 replicates each; for log2 IBAQ [Venus-PP1 1] / log2 IBAQ [Venus-PP1 2] / log2 IBAQ [Venus-PP1 3]: pulldown of Venus-PP1 from mitotic cells, label-free LC-MS/MS, log2 IBAQ of co-purified protein; for log2 IBAQ [Venus-PP1 1]: replicate 1; for log2 IBAQ [Venus-PP1 2]: replicate 2; for log2 IBAQ [Venus-PP1 3]: replicate 3
Source text: as §1, §2, §3

Molecule | log2 ratio [Venus-B55/Venus] (Venus-B55) | log2 IBAQ [Venus-B55 1] (Venus-B55) | log2 IBAQ [Venus-B55 2] (Venus-B55) | log2 IBAQ [Venus-B55 3] (Venus-B55) | B55 or PP1? (Venus-PP1) | log2 ratio [Venus-PP1/Venus] (Venus-PP1) | log2 IBAQ [Venus-PP1 1] (Venus-PP1) | log2 IBAQ [Venus-PP1 2] (Venus-PP1) | log2 IBAQ [Venus-PP1 3] (Venus-PP1)
B1 | 1.82 | 20.14 | 18.75 | 20.44 | B55/PP1 | 6.44 | 24.17 | 24.63 | 27.56
B2 | 3.74 | 18.20 | 19.35 | 19.45 | B55/PP1 | 4.15 | 19.13 | 19.69 | 20.57
B3 | 3.89 | 18.68 | 18.13 | 17.35 | B55/PP1 | 5.49 | 19.45 | 19.86 | 24.60
